From patent publication US20180355338A1

Legend:
[1] = molecular target: TY-145 protease variant I150A, S173P, S175P, F180Y (Bacillus sp. TY-145); assay: Ki fitted from Suc-AAPF-pNA activity; Tris buffer pH 8; ratio against m3 (without I150A)
[2] = molecular target: TY-145 protease variant I150N, S173P, S175P, F180Y (Bacillus sp. TY-145); assay: Ki fitted from Suc-AAPF-pNA activity; Tris buffer pH 8; ratio against m3 (without I150N)
[3] = molecular target: TY-145 protease variant I150N (Bacillus sp. TY-145); assay: Ki fitted from Suc-AAPF-pNA activity; Model B detergent; relative to TY145 backbone
[4] = molecular target: TY-145 protease variant I150S (Bacillus sp. TY-145); assay: as above
[5] = molecular target: TY-145 protease variant L184F (Bacillus sp. TY-145); assay: as above
[6] = molecular target: TY-145 protease variant L184Y (Bacillus sp. TY-145); assay: as above
[7] = molecular target: TY-145 protease variant Q70A (Bacillus sp. TY-145); assay: as above
[8] = molecular target: TY-145 protease variant Q70N (Bacillus sp. TY-145); assay: as above
[9] = molecular target: TY-145 protease variant R224G (Bacillus sp. TY-145); assay: as above
[10] = molecular target: TY-145 protease variant S111R (Bacillus sp. TY-145); assay: as above
[11] = molecular target: TY-145 protease variant S114A (Bacillus sp. TY-145); assay: as above
[12] = molecular target: TY-145 protease variant Y240R (Bacillus sp. TY-145); assay: as above
[13] = molecular target: TY-145 protease variant S173P, S175P, I178F, F180Y (Bacillus sp. TY-145); assay: Ki fitted from Suc-AAPF-pNA activity; Model B detergent; ratio against m3 (without I178F)
[14] = molecular target: TY-145 protease variant S173P, S175P, I178Y, F180Y (Bacillus sp. TY-145); assay: Ki fitted from Suc-AAPF-pNA activity; Model B detergent; ratio against m3 (without I178Y)
[15] = molecular target: TY-145 protease variant K146F, S173P, S175P, F180Y (Bacillus sp. TY-145); assay: Ki fitted from Suc-AAPF-pNA activity; Model B detergent; ratio against m3 (without K146F)
[16] = molecular target: TY-145 protease variant S173P, S175P, F180Y, L184D (Bacillus sp. TY-145); assay: Ki fitted from Suc-AAPF-pNA activity; Model B detergent; ratio against m3 (without L184D)
[17] = molecular target: TY-145 protease variant S173P, S175P, N176Y, F180Y (Bacillus sp. TY-145); assay: Ki fitted from Suc-AAPF-pNA activity; Model B detergent; ratio against m3 (without N176Y)
[18] = molecular target: TY-145 protease variant S173P, S175P, F180Y, R224D (Bacillus sp. TY-145); assay: Ki fitted from Suc-AAPF-pNA activity; Model B detergent; ratio against m3 (without R224D)
[19] = molecular target: TY-145 protease variant S173P, S175P, F180Y, R224G (Bacillus sp. TY-145); assay: Ki fitted from Suc-AAPF-pNA activity; Model B detergent; ratio against m3 (without R224G)
[20] = molecular target: TY-145 protease variant S27K, S171N, S173P, G174R, S175P, F180Y, L184F, Q198E, T297P (Bacillus sp. TY-145); assay: Ki fitted from Suc-AAPF-pNA activity; Model B detergent; ratio against m4 (without L184F)
[21] = molecular target: TY-145 protease variant S27K, S173P, G174K, S175P, F180Y, L184F, Q198E, N199K, T297P (Bacillus sp. TY-145); assay: Ki fitted from Suc-AAPF-pNA activity; Model B detergent; ratio against m8 (without L184F)
[22] = molecular target: TY-145 protease variant S27K, S173P, G174K, S175P, F180Y, L184F, Q198E, N199R, T297P (Bacillus sp. TY-145); assay: Ki fitted from Suc-AAPF-pNA activity; Model B detergent; ratio against m9 (without L184F)
[23] = molecular target: TY-145 protease variant S27K, S171D, S173P, G174R, S175P, G182A, L184F, Q198E, N199K, R224G, T297P (Bacillus sp. TY-145); assay: Ki fitted from Suc-AAPF-pNA activity; Model B detergent; ratio against m12 (without R224G)
[24] = molecular target: TY-145 protease variant S27K, V162T, S173P, G174K, S175P, F180Y, L184F, Q197K, Q198E, T297P (Bacillus sp. TY-145); assay: Ki fitted from Suc-AAPF-pNA activity; Model B detergent; ratio against m14 (without L184F)
[25] = molecular target: TY-145 protease variant S173P, S175P, I178F, F180Y (Bacillus sp. TY-145); assay: Ki fitted from Suc-AAPF-pNA activity; Model B detergent; ratio against m3 (without I178F); second row of the same variant
[26] = molecular target: TY-145 protease variant S173P, S175P, F180Y, L184F (Bacillus sp. TY-145); assay: Ki fitted from Suc-AAPF-pNA activity; Model B detergent; ratio against m3 (without L184F); second row of the same variant

“Z-Gly-Ala-NHCH(CH2C6H4pOH)C(OH)(SO3Na)-H, wherein Z is benzyloxycarbonyl (peptide)” gave a relative Ki mutation [1] of 0.4, a relative Ki mutation [2] of 0.21 and an IF (binding constant improvement factor, relative Ki) [3] of 0.27. For the same substance, the IF (binding constant improvement factor, relative Ki) [4] was 0.2, the IF (binding constant improvement factor, relative Ki) [5] was 0.44 and the IF (binding constant improvement factor, relative Ki) [6] was 0.22. It also gave an IF (binding constant improvement factor, relative Ki) [7] of 0.39, an IF (binding constant improvement factor, relative Ki) [8] of 0.3 and an IF (binding constant improvement factor, relative Ki) [9] of 0.6. It also gave an IF (binding constant improvement factor, relative Ki) [10] of 0.9, an IF (binding constant improvement factor, relative Ki) [11] of 0.47 and an IF (binding constant improvement factor, relative Ki) [12] of 0.84. For the same substance, the relative Ki mutation [13] was 0.5, the relative Ki mutation [14] was 0.53 and the relative Ki mutation [15] was 0.25. The relative Ki mutation [16] was 0.37, the relative Ki mutation [17] was 0.81 and the relative Ki mutation [18] was 0.36. It also gave a relative Ki mutation [19] of 0.47, a relative Ki mutation [20] of 0.18 and a relative Ki mutation [21] of 0.36. For the same substance, the relative Ki mutation [22] was 0.22, the relative Ki mutation [23] was 0.49 and the relative Ki mutation [24] was 0.17. It also gave a relative Ki mutation [25] of 0.49 and a relative Ki mutation [26] of 0.27.
